In US20040014207A1:

Biological target: murine B7-DC (murine) (UniProt Q9WUL5)
Assay: flow cytometry competition; murine bone marrow derived dendritic cells preincubated with PD-1.Ig, then stained with sHIgM12

Chain of PD-1.Ig fusion protein (Fc fusion) (Q02242 25-169): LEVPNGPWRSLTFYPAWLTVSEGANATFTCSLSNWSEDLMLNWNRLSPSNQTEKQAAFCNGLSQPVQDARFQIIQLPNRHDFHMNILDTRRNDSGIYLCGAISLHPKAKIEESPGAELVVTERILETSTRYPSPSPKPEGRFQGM
Chain of murine B7-DC (murine) (Q9WUL5 20-247): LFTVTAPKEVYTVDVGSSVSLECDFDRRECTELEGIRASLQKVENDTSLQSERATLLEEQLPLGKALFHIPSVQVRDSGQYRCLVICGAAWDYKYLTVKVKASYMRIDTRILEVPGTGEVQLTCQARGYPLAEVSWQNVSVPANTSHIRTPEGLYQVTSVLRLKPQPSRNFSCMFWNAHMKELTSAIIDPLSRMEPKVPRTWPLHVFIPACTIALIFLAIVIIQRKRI

PD-1.Ig fusion protein (Fc fusion)
sHIgM12 staining remaining, percent of the level in the absence of PD-1: 50%
